Values quoted from earlier work, collected in article PMC4136965 (Journal of nuclear medicine : official publication, Society …, 2009).
Read-outs that look alike come from different tables or passages of the source. Non-standard residues stand in square brackets, D forms with d. No end group written: not given here.

Test system: B16F10 xenografted melanoma
Details: mouse, in vivo

Substance: ^18F-FB-Ac-Nle-Asp-His-D-Phe-Arg-Trp-Gly-Lys-NH2 ([dF]RWGK-NH2; not fully specified (N-terminus); also: 18F-FB label, position not given here) [^18F-FB-NAPamide]
- Tumor uptake (1 h): 1.19 ± 0.11 %ID/g
- Tumor uptake (4 h): 0.25 ± 0.05 %ID/g
